Measured values reported in patent US20250333515A1 (VOR BIOPHARMA, published 2025).

What was measured:
[1] = molecular target: T1, biotinylated recombinant CLL-1 protein (UniProt Q5QGZ9 65-265, limits assumed, biotinylated (site not stated)); assay: ELISA; biotinylated CLL-1 on neutravidin plate, FLAG-tagged binder, anti-FLAG HRP
T1 construct: also called CLEC12A
T1 sequence (looked up): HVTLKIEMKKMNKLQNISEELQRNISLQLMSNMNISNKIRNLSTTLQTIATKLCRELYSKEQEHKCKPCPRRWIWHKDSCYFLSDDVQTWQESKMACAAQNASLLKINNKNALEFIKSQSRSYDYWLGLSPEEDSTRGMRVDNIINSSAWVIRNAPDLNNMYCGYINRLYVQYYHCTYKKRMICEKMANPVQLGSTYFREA
Description: Dose-depending binding activities were analyzed by ELISA. COSTAR® microtiter plates were coated with 1 μg/mL neutravidin protein. Following washing, neutravidin-coated wells were seeded with 100 nM of biotinylated recombinant CLL-1 protein. Following washing, purified FLAG-tagged CLL-1 antibody binders were added to the wells and subsequently detected by mouse anti-FLAG tag HRP conjugate (Sigma).

[2] = molecular target: T2, CLL-1 on the surface of CLL-1-positive AML cell lines (HL-60 WT, U937) (human, UniProt Q5QGZ9 1-265); assay: flow cytometry, HL-60 WT, 200 nM; secondary only 5600
T2 construct: whole, on cells; also called HL-60 WT cells; U937 cells
T2 sequence (looked up): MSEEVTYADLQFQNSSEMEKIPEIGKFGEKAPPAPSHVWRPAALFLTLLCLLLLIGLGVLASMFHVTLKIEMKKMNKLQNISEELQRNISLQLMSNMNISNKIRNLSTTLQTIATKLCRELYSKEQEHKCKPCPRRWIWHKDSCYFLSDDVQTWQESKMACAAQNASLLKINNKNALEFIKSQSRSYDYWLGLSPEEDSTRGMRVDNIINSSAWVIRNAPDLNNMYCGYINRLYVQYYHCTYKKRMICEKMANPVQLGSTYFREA
Description: (§1) HL60 WT, U937, or HL-60 CLL-1 knockout (KO) control cells were counted, washed in PBS and mixed with 1 ml of Fixable Viability dye eFluor 780 (diluted at 1:1000 in PBS) then incubated at room temperature for 10 minutes to distinguish Live/Dead cells. Subsequently the cells were washed once with FACS Buffer (PBS with 2% FBS) and incubated with human TruStain FcX™ (Fc block diluted at 1:10 in FACS buffer) at room temperature for 5 minutes. Fc blocked cells were stained with 50 μL of the primary CLL-1 antibody (at 200 nM concentrations) and incubated at 4° C. for 30 minutes in the dark. Cells were subsequently stained with 100 μL of secondary antibody (AF488 Rabbit anti-FLAG-tag diluted at 1:1000) incubated at 4° C. for 30 minutes in the dark. Cells were washed and flow cytometric analysis was performed using flow cytometry and data analysis was performed using FlowJo.

[3] = molecular target: T2, CLL-1 on the surface of CLL-1-positive …; assay: flow cytometry, U937, 200 nM; last table names out of step
Description: as §1

[4] = molecular target: T2, CLL-1 on the surface of CLL-1-positive …; assay: multi-point flow cytometry on HL-60 WT cells, FLAG-tagged binder, anti-FLAG AlexaFluor 488
Description: Target cell staining was assessed relative to control samples comprising cells stained with secondary antibodies only (see FIG. 6). Multi-point FACS via flow cytometry was performed to assess dose-depending binding of CLL-1 antibody binders to the cell surface of HL-60 WT cells. Un-fixed, un-permeabilized cells were incubated with various concentrations of purified FLAG-tagged anti-CLL-1 antibody clones and cell-surface binding was detected by subsequent incubation in the presence of rabbit anti-FLAG tag antibody AlexaFluor 488-conjugate antibody (R&D Systems).

| Binder | EC50 [1] [nM] | Geometric Mean : B530-H [2] | Geometric Mean : B530-H [3] | EC50 [4] [nM] |
| --- | --- | --- | --- | --- |
| Anti-CLL-1 Binder Clone 20 (VHH, also called 20 VH; VH clone 20; not shown: FLAG tag) VHH: QVQLVQSGGGLVQPGGSLRLSCAASDFSFSYYEMSWVRQAPGKGLEWVSTISGSGDSTYYADSVKGRFTISRDNTKNTLYLQMNTLRAEDTATYYCMTDGETWGTHRYTVYWGQGALVTVSS | 4.7 | 9110 | 27000 |  |
| Anti-CLL-1 Binder Clone 1 (scFv, scFv (VL-linker-VH) from a fully human scFv phage library; not shown: FLAG tag) scFv: SYVLTQPPSVSVAPGQTARITCGGNNIGSKSVHWYQQKPGQAPVLVVYDDSDRPSGIPERFSGSNSGNTATLTISRVEAGDEADYYCQVWDSSSDHPVFGGGTQLIILGGGGSGGGGSGGGGSQVQLVQSGAEVKKPGSSVKVSCKASGGTFSSYAISWVRQAPGQGLEWMGRIIPILGIANYAQKFQGRVTITADESTSTAYMELSSLRSEDTAVYYCAREKDDILTGAYYYGMDVWGQGTTVTVSS | 3.4 | 18100 | 46300 | 3.2 |
| Anti-CLL-1 Binder Clone 38 (scFv, scFv (VL-linker-VH); not shown: FLAG tag) scFv: DIQMTQSPSTLSASVGDRVTITCRASQSISSWLAWYQQKPGKAPKLLIYTASSLQSGVPSRFSGSESGTDFTLTISSLQPEDFATYYCQQSYSTPLTFGGGTKVDIKGGGGSGGGGSGGGGSQVQLVQSGAEVKKPGASVKVSCKASGYTFTGYYMHWVRQAPGQGLEWMGWINPNSGGTNYAQKFQGRVTLTRDTSITTAYLELTSLTSDDTAVYYCARGDTGDFFDHWGQGTLVTVSS | 0.6 | 19800 | 55300 | 1.6 |
| Anti-CLL-1 Binder Clone 11 (scFv, scFv (VL-linker-VH); not shown: FLAG tag) scFv: QSVLTQPASVSGSPGQSITISCTGTSSDVGASNSVSWYQRHPGKPPKLMIYDVSNRPSGISNRFSGSKSGNTASLTISGLQSEDEADYYCSSYTGSSTFVVFGGGTQLIILGGGGSGGGGSGGGGSEVQLVESGGGVVQPGGSLRLSCAASGFTFSSYWMSWVRQAPGKGLEWVANIRQDGSEKYYVDSVKGRFTISRDNAKNSLYLQMNSLRAEDAAVYYCAREQDTAMVAFDYWGQGTLVTVSS | 1.4 | 20500 | 60200 | 0.2 |
| Anti-CLL-1 Binder Clone 40 (scFv, scFv (VL-linker-VH); not shown: FLAG tag) scFv: QSVLTQPPSVSAAPGQKVTISCSGSSSNIGNNYVSWYQQLPGTAPKLLIYDNNKRPSGIPDRFSGSESGTSATLGITGLQTGDEADYYCGTWDSSLSAWVFGGGTQLIILGGGGSGGGGSGGGGSQVQLQQSGPGLVKPSQTLSLTCAISGDSVSSNSAAWNWIRQSPSRGLEWLGRTHYRSKWYNDYAVSVKSRITISADTSKNQFSLQLNSVTPEDTAVYYCARDRYTVRPDAFDIWGQGTTVTVSS | 0.5 | 23100 |  | 11.4 |
| Anti-CLL-1 Binder Clone 10 (scFv, scFv (VL-linker-VH); not shown: FLAG tag) scFv: DIQMTQSPSFLSASVGDRVTITCRASQGISSYLAWYQQKPGKAPKLLIYSASSLQSGVPSRFSGSGSGTDFTLTISSLQPEDFATYYCQQSYNSPTFGQGTRLEIKGGGGSGGGGSGGGGSQVQLVQSGAEVKKPGASVKVSCKASGYTFTGYYMHWVRQAPGQGLEWMGWMNPNSGNTGYAQKFQGRVTMTRNTSISTAYLELTSLTSDDTAVYYCARGDTGDFFDHWGQGTLVTVSS | 1.1 | 24900 | 52100 | 0.2 |
| Anti-CLL-1 Binder Clone 42 (scFv, scFv (VL-linker-VH); not shown: FLAG tag) scFv: EIVLTQSPATLSLSPGERATLSCRASQSVSSYLAWYQQKPGQAPRLLIYDASNRATGIPDRFSGSGSGTDFTLTISRLEPEDFAVYYCQQYGSSPVTFGQGTKLEIKGGGGSGGGGSGGGGSQVQLVQSGAEVKKPGSSVKVSCKASGGTFSSYAISWVRQAPGQGLEWMGGIIPIFGTANYAQKFQGRVIMTTDTSTSTAHMELRSLRSDDTAVYYCARDADEFGAFDIWGQGTTVTVSS | 1.5 | 10400 | 29000 | 2.2 |
| Anti-CLL-1 Binder Clone 6 (scFv, scFv (VL-linker-VH); not shown: FLAG tag) scFv: QSVLTQPPSVSAAPGQKVSIFCSGGSSNIGKNYVSWYQQLPGTAPKLLIYENQHRPSGIPDRFSGSKSGTSATLGITGLQTGDEADYYCATWDDSLSAGVFGGGTELTVLGGGGSGGGGSGGGGSQLVQSGAEVRKPGESLKISCKGSGYSFTSYWIGWVRQMPGKGLEWMGFIYPGDSDTRYSPSFQGQVTISADKSISTAYLQRSSLKASDTAMYYCARLGGYSGYDSEVFYLDYWGQGTTVTVSS | 0.9 | 9390 | 34300 | 59 |
| Anti-CLL-1 Binder Clone 4 (scFv, scFv (VL-linker-VH); not shown: FLAG tag) scFv: QSVVTQPPSVSAAPGQKVTISCSGSSPNIGKNYVSWYQQLPGTAPKLLIYDNNKRPSGIPDRFSGSKSGTSATLGITGLQTGDEADYYCGTWDSSLSGYVFGTGTKVTVLGGGGSGGGGSGGGGSQVQLVESGGGVVQPGRSLRLSCAASGFTFSSYGMHWVRQAPGKGLEWVAFISHDGSNKYYADSVKGRSTISRDNSKSTLFLQMNSLRDEDTAVYFCAREGQLTTSWDFFDYWGHGTLVTVSS | 1.4 | 11600 | 33600 | 6.4 |
| Anti-CLL-1 Binder Clone 2 (scFv, scFv (VL-linker-VH); not shown: FLAG tag) scFv: QSVLTQPLSVSVALGQTARITCGGNNIGSKNVHWYQQKAGQAPVLVIQRDSNRPSGIPERFSGSNSGNTATLTISRAQAGDEADYFCQVWDSNTYVFGTGTKLTVLGGGGSGGGGSGGGGSEVQLVESGGGLVKPGGSLRLSCAASGFTFSDYYMSWIRQAPGKGLEWVSYISSSGSTIYYADSVKGRFTISRDNAKNSLYLQMNSLRDEDTAVYYCARQSAEIVGAFDHWGQGTMVTVSS | 0.9 | 11100 | 50800 | 1.8 |
| Anti-CLL-1 Binder Clone 12 (scFv, scFv (VL-linker-VH); not shown: FLAG tag) scFv: DIQMTQSPSSLSASVGDRVTITCQASQDISNYLNWYQQKPGKAPKLLIYDASNLETGVPSRFSGSGSGTDFTLTISSPQPEDLATYYCQQANSFPFTFGQGTKVEIKGGGGSGGGGSGGGGSQVQLVQSGAEVKKPGSSVKVSCKASGYSFTRNDITWVRQANGRGLEWLGRLNPNNGDTVYAEVFQGRVAMTRDTSTDTAYMELASLKSDDTAVYFCARGFWSFDVWGQGTMVTVSS | 3.7 | 11800 | 59600 | 0.2 |
